The values below come from article PMC6682550.

In this assay the target is 6xHis-tag M1 protein from Influenza A/FPV/Rostock/34, labelled with Alexa Fluor 488 (M1-Alexa488) (Influenza A virus A/FPV/Rostock/34) (UniProt P03487). In words: […], pH 7.4, NaCl ~45 mM; […].

With “6xHis-tag M1 protein from Influenza A/FPV/Rostock/34, labelled with Alexa Fluor 488 (M1-Alexa488) (from UniProt P03487 1-252) (natural protein)”, the stoichiometry N turned out to be 15.

What is called stoichiometry N is the number of molecules, sites or subunits per partner or assembly.
